B1: MBP-6His-HA (M6HH)-tagged SPD-5 aa 1-113, PLK1-phosphorylated, P91349 S5A; S11A (protein)
chain: MEDNAVLNEDANLEHVEGQPRRSMSQPVLNVEGDKRTSSTSATQQQVLSGAFSSADVRSIPIIQTWEENKALKTKITILRGELQMYQRRYSEAKEASQKRVKEVMDDYVDLKL
B2: MBP-6His-HA (M6HH)-tagged SPD-5 aa 1-113, not phosphorylated, P91349 S5A; S11A (protein)
chain: MEDNAVLNEDANLEHVEGQPRRSMSQPVLNVEGDKRTSSTSATQQQVLSGAFSSADVRSIPIIQTWEENKALKTKITILRGELQMYQRRYSEAKEASQKRVKEVMDDYVDLKL
B3: untagged SPD-5 aa 135-473, PLK1-phosphorylated, P91349 S170A; T178A; T198A (protein)
chain: MQSRIETSEDNFARQMKEFEAQKHAMEERIKELELAATDANNTAVGSFRGTLDDILKKNDPDFALTSGYEERKINDLEAKLLSEIDKVAELEDHIQQLRQELDDQSARLADSENVRAQLEAATGQGILGAAGNAMVPNSTFMIGNGRESQTRDQLNYIDDLETKLADAKKENDKARQALVEYMNKCSKLEHEIRTMVKNSTFDSSSMLLGGQTSDELKIQIGKVNGELNVLRAENRELRIRCDQLTGGDGNLSISLGQSRLMAGIATNDVDSIGQGNETGGTSMRILPRESQLDDLEESKLPLMDTSSAVRNQQQFASMWEDFESVKDSLQNNHNDTLE
B4: untagged SPD-5 aa 135-473, not phosphorylated, P91349 S170A; T178A; T198A (protein)
chain: MQSRIETSEDNFARQMKEFEAQKHAMEERIKELELAATDANNTAVGSFRGTLDDILKKNDPDFALTSGYEERKINDLEAKLLSEIDKVAELEDHIQQLRQELDDQSARLADSENVRAQLEAATGQGILGAAGNAMVPNSTFMIGNGRESQTRDQLNYIDDLETKLADAKKENDKARQALVEYMNKCSKLEHEIRTMVKNSTFDSSSMLLGGQTSDELKIQIGKVNGELNVLRAENRELRIRCDQLTGGDGNLSISLGQSRLMAGIATNDVDSIGQGNETGGTSMRILPRESQLDDLEESKLPLMDTSSAVRNQQQFASMWEDFESVKDSLQNNHNDTLE
B5: untagged SPD-5 aa 135-473, PLK1-phosphorylated, P91349 S170A; T178A; T198A; T274A; T335A; S339A; S340A (protein)
chain: MQSRIETSEDNFARQMKEFEAQKHAMEERIKELELAATDANNTAVGSFRGTLDDILKKNDPDFALTSGYEERKINDLEAKLLSEIDKVAELEDHIQQLRQELDDQSARLADSENVRAQLEAATGQGILGAAGNAMVPNSAFMIGNGRESQTRDQLNYIDDLETKLADAKKENDKARQALVEYMNKCSKLEHEIRTMVKNSAFDSAAMLLGGQTSDELKIQIGKVNGELNVLRAENRELRIRCDQLTGGDGNLSISLGQSRLMAGIATNDVDSIGQGNETGGTSMRILPRESQLDDLEESKLPLMDTSSAVRNQQQFASMWEDFESVKDSLQNNHNDTLE
B6: untagged SPD-5 aa 135-473, PLK1-phosphorylated, P91349 T274A; T335A; S339A; S340A (protein)
chain: MQSRIETSEDNFARQMKEFEAQKHAMEERIKELELSATDANNTTVGSFRGTLDDILKKNDPDFTLTSGYEERKINDLEAKLLSEIDKVAELEDHIQQLRQELDDQSARLADSENVRAQLEAATGQGILGAAGNAMVPNSAFMIGNGRESQTRDQLNYIDDLETKLADAKKENDKARQALVEYMNKCSKLEHEIRTMVKNSAFDSAAMLLGGQTSDELKIQIGKVNGELNVLRAENRELRIRCDQLTGGDGNLSISLGQSRLMAGIATNDVDSIGQGNETGGTSMRILPRESQLDDLEESKLPLMDTSSAVRNQQQFASMWEDFESVKDSLQNNHNDTLE
B7: untagged SPD-5 aa 135-473, not phosphorylated, P91349 T274A; T335A; S339A; S340A (protein)
chain: MQSRIETSEDNFARQMKEFEAQKHAMEERIKELELSATDANNTTVGSFRGTLDDILKKNDPDFTLTSGYEERKINDLEAKLLSEIDKVAELEDHIQQLRQELDDQSARLADSENVRAQLEAATGQGILGAAGNAMVPNSAFMIGNGRESQTRDQLNYIDDLETKLADAKKENDKARQALVEYMNKCSKLEHEIRTMVKNSAFDSAAMLLGGQTSDELKIQIGKVNGELNVLRAENRELRIRCDQLTGGDGNLSISLGQSRLMAGIATNDVDSIGQGNETGGTSMRILPRESQLDDLEESKLPLMDTSSAVRNQQQFASMWEDFESVKDSLQNNHNDTLE
B8: untagged SPD-5 aa 135-473, not phosphorylated, P91349 S170A; T178A; T198A; T274A; T335A; S339A; S340A (protein)
chain: MQSRIETSEDNFARQMKEFEAQKHAMEERIKELELAATDANNTAVGSFRGTLDDILKKNDPDFALTSGYEERKINDLEAKLLSEIDKVAELEDHIQQLRQELDDQSARLADSENVRAQLEAATGQGILGAAGNAMVPNSAFMIGNGRESQTRDQLNYIDDLETKLADAKKENDKARQALVEYMNKCSKLEHEIRTMVKNSAFDSAAMLLGGQTSDELKIQIGKVNGELNVLRAENRELRIRCDQLTGGDGNLSISLGQSRLMAGIATNDVDSIGQGNETGGTSMRILPRESQLDDLEESKLPLMDTSSAVRNQQQFASMWEDFESVKDSLQNNHNDTLE

Tests used:
[1] = biological target: T1, C. elegans γ-tubulin complex (γTuC): γ-tubulin TBG-1, GCP2 GIP-2-5Myc, GCP3 GIP-1 and MZT-1, P34475;G5EF84; assay: pull-down on γTuC-coated beads, anti-MBP immunoblot; details: chain shown with the change, binding 2 hours at 4°C, scale: band intensity relative to SPD-5 1-113 without PLK1
T1 sequence (chain, as listed by the source, chain 1 of 4): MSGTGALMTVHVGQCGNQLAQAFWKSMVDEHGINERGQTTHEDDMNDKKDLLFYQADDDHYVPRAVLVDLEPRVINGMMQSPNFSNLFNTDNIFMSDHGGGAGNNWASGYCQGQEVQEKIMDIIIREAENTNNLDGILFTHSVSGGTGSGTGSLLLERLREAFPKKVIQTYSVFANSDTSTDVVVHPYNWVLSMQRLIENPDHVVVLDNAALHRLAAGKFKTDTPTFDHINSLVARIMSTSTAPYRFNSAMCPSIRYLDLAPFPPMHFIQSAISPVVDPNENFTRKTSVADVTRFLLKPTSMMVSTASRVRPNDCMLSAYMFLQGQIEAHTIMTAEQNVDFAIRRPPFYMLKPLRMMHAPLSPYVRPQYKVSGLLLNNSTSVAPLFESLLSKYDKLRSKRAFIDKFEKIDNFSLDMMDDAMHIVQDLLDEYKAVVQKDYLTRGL
T1 sequence (chain, as listed by the source, chain 2 of 4): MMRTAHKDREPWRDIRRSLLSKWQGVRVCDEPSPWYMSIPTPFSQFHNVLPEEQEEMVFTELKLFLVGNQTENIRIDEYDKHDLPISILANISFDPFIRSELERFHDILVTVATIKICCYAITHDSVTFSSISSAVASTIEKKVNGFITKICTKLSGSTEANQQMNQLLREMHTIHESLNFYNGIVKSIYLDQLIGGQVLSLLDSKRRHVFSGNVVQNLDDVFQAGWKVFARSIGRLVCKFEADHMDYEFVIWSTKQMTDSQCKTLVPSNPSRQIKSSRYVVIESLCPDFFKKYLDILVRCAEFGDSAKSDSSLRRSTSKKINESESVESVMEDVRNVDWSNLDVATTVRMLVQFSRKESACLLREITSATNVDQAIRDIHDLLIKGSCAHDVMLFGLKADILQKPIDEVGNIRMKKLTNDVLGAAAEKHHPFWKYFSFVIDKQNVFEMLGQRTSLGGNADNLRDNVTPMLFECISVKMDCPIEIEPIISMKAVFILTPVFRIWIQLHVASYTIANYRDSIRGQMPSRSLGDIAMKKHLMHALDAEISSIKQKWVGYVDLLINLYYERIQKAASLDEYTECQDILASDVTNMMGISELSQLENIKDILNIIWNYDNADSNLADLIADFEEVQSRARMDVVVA
T1 sequence (chain, as listed by the source, chain 3 of 4): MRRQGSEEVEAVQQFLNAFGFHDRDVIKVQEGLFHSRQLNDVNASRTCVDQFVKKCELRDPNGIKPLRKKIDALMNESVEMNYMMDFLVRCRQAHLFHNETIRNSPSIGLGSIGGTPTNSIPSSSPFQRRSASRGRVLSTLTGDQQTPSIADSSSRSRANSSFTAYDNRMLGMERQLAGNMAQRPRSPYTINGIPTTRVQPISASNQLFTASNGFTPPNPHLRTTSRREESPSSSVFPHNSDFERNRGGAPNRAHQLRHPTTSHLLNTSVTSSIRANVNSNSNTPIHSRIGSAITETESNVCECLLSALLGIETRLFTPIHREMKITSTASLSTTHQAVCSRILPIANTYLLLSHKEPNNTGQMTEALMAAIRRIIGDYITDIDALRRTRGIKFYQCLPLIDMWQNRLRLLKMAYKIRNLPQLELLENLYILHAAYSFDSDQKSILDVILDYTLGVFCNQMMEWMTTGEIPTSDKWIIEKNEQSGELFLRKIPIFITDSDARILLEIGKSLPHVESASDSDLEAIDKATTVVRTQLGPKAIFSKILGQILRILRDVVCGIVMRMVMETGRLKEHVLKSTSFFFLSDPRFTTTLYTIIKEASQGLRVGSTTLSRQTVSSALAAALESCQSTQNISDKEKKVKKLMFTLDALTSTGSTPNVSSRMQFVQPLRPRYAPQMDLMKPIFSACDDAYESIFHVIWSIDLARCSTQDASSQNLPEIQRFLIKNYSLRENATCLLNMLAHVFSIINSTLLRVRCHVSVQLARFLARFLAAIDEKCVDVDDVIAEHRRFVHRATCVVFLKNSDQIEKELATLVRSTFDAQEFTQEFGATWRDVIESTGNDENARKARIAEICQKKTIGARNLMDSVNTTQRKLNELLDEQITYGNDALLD
T1 sequence (chain, as listed by the source, chain 4 of 4): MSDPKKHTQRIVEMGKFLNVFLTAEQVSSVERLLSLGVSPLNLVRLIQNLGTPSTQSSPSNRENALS

[2] = biological target: T1, C. elegans γ-tubulin complex (γTuC): …; assay: pull-down on γTuC-coated beads, anti-SPD-5 immunoblot; details: chain shown with the change, binding 2 hours at 4°C, scale: band intensity relative to SPD-5 135-473 without PLK1
[3] = +PLK1 preincubation (2.0 μM fragment, 500 nM PLK1(T194D), 0.2 mM ATP, 1 hour at 23°C), 75 nM SPD-5 …

Row | response [2, 3] | response ([2]; no PLK1, 75 nM SPD-5 fragment) | other results | Binder
1 |  |  | response [1, 3]: 4.7 | B1
2 |  |  | response ([1]; no PLK1, 75 nM SPD-5 fragment): 0.6 | B2
3 | 0.1 |  |  | B3
4 |  | 0.7 |  | B4
5 | 0 |  |  | B5
6 | 2.8 |  |  | B6
7 |  | 0.1 |  | B7
8 |  | 0.1 |  | B8

Reference: article doi:10.1101/2025.11.20.689565
